Measured values: patent publication US20030027764A1

Tests used:
Test in all cases: cell-based or functional assay
[1] = biological target: Bee venom (Apis melifera) PLA2 (Apis mellifera) (UniProt P00630)
[2] = biological target: daboiatoxin, the major PLA2 toxin of Daboia russelli siamensis venom (Daboia russelli siamensis)
[3] = biological target: Taipoxin (Oxyuranus scutellatus PLA2) (Oxyuranus scutellatus) (UniProt P00614)
Taipoxin (Oxyuranus scutellatus PLA2) (Oxyuranus scutellatus), sequence (P00614 whole entry, chain 1 of 3): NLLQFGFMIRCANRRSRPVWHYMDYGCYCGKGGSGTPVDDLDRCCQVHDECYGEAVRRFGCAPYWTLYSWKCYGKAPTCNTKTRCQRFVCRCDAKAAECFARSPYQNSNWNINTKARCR
Taipoxin (Oxyuranus scutellatus PLA2) (Oxyuranus scutellatus), sequence (P00615 28-145, chain 2 of 3, further chain): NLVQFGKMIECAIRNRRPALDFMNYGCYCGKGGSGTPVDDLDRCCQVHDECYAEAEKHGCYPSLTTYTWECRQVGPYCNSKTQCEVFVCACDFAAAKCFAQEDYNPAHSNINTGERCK
Taipoxin (Oxyuranus scutellatus PLA2) (Oxyuranus scutellatus), sequence (P00616 20-152, chain 3 of 3, further chain): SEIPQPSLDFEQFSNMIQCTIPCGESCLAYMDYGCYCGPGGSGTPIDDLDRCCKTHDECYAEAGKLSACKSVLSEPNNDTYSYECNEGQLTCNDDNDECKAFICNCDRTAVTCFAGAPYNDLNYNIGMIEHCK

Bee venom (Apis melifera) PLA2 (Apis mellifera), sequence (P00630 34-167): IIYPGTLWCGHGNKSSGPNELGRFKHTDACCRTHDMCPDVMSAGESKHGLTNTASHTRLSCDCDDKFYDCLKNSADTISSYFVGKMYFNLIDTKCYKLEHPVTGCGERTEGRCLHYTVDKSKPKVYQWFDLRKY
recombinant Python Antitoxic Factor (PAF), later renamed Phospholipase Inhibitor from Python (PIP),, sequence (Q9I8P7 20-201): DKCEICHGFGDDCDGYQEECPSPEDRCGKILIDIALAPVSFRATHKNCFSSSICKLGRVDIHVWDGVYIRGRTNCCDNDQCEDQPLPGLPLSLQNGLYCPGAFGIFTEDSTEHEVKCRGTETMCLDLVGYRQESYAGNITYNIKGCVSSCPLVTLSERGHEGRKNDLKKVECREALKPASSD

Substance | % Inhibition of paw oedema; Bee venom PLA2 (1 µg) + 100 µg AIP-2 [1] | % Inhibition of paw oedema; DbTx (1 µg) + 100 µg AIP-2 [2] | % Inhibition of paw oedema; Bee venom PLA2 (1 µg) + 50 µg PIP [1] | % Inhibition of paw oedema; Bee venom PLA2 (1 µg) + 100 µg PIP [1] | % Neutralisation [3] | % Inhibition of paw oedema; DbTx (1 µg) + 50 µg PIP [2] | % Inhibition of paw oedema; DbTx (1 µg) + 100 µg PIP [2]
anti-inflammatory peptide-2 from Sigma | 33.6% | 35.3% | – | – | – | – | –
recombinant Python Antitoxic Factor (PAF), later renamed Phospholipase Inhibitor from Python (PIP), (from UniProt Q9I8P7 20-201) | – | – | 39.9% | 78.1% | 50% | 89.2% | 92.2%
